The values that follow come from US10759836B2, “Cancer vaccine compositions and methods of use thereof” (UNIVERSITY OF WASHINGTON, priority 2014, dated 2020).

The test system of assay [1] is small bowel tumor burden in APCmin mice. Put plainly: APCmin mouse model: small bowel tumor count after peptide vaccination. Format: in vivo. As to conditions: for effect on small bowel tumor burden (tumor count): APCmin mice, vs CFA/IFA control, 50 ug per peptide s.c.; for peptide efficacy, APCmin Small Bowel (Spontaneous): summary table, Yes/No. The procedure:
(§1) Offspring from APCmin were genotyped by PCR for the presence of the Min mutation using primers as follows: Wild-Type: 5′-[…]-3′ (SEQ ID NO: 46), Common 5′-[…]-3′ (SEQ ID NO: 47), Mutant: 5′-[…]-3′ (SEQ ID NO: 48). Both male and female mice testing positive for the Min mutation were included in the study and randomized into groups.
(§2) At 4-6 weeks of age, mice were immunized in CFA/IFA, PBS, and vaccine groups. Each group received subcutaneous injections (100 ul PBS, 50 ul CFA with 50 ul PBS, 50 ug per peptide with 50 ul CFA) once every 7-10 days for a total of three doses and one booster was given 4-5 weeks after the third vaccine. See Table 5 for peptides included in vaccine compositions. CFA was replaced with IFA after the first vaccine. All mice were sacrificed at 14 to 17 weeks of age, the gastrointestinal tracts were collected and tumors counted.

The test system of assay [2] is colon tumor burden in APCmin mice. Put plainly: APCmin mouse model: colon tumor count after peptide vaccination. The class given is in vivo. As to conditions: for effect on colon tumor burden (tumor count): APCmin mice, vs CFA/IFA control, 50 ug per peptide s.c.; for peptide efficacy, APCmin Colon (Spontaneous): summary table, Yes/No. The procedure: as §1, §2
Assay [3] concerns small bowel tumor burden in APCmin mice. The experiment in a line: APCmin survival study: small bowel tumor count at sacrifice. The class given is in vivo. Particulars: boosters every 4-5 weeks, vs CFA/IFA. The procedure:
At 4-6 weeks of age, mice were immunized with CFA/IFA, PBS, and vaccine groups. Each group received subcutaneous injections (100 ul PBS, 50 ul CFA with 50 ul PBS, 50 ug per peptide with 50 ul CFA) once every 7-10 days for a total of three doses and a booster vaccine was given every 4-5 weeks after the third vaccine. See Table 6 for peptides included in vaccine compositions. CFA was replaced with IFA after the first vaccine. […] At sacrifice, small intestines were collected and small bowel tumors counted.

Assay [4] deals with colon tumor burden in AOM mice (Azoxymethane + FVB). The experiment in a line: AOM mouse model: colon tumor count after peptide vaccination. Format: in vivo. Particulars: for effect on colon tumor burden (tumor count): AOM treated FVB mice, vs control group (CFA/IFA; PBS for IGF1R, PRL3, RCAS1); for peptide efficacy, Azoxymethane + FVB (Induced): summary table, Yes/No. Here is the method: AOM mouse in-vivo experiments. At 6 weeks of age, FVB mice were immunized in CFA/IFA, PBS, and vaccine groups. Each group received subcutaneous injections (100 ul PBS, 50 ul CFA with 50 ul PBS, 50 ug per peptide with 50 ul CFA) once every 10-14 days for a total of three doses and a booster was given every 4-5 weeks after the third vaccine. See Table 7 for peptides included in vaccine compositions. CFA was replaced with IFA after the first vaccine. Seven days after the third vaccine, mice were injected with Azoxymethane (AOM) at 10 mg/kg, twice weekly for 6 weeks. At 26 weeks of age, all mice were sacrificed and tumors in the colon were counted.

The subject of assay [5] is MC-38 cells (murine adenocarcinoma). Put plainly: MC-38 tumor implant model: tumor volume after peptide vaccination. Format: in vivo, C57Bl/6 mice. As to conditions: for effect on tumor volume: MC-38 tumor implant in C57Bl/6 mice, vs CFA/IFA; for peptide efficacy, MC-38 + B6 (Tumor Implant): summary table, Yes/No. The procedure: MC-38 tumor implant in-vivo experiments. At 6 weeks of age, mice were immunized in CFA/IFA, PBS, and vaccine groups. Each group received subcutaneous injections (100 ul PBS, 50 ul CFA with 50 ul PBS, 50 ug per peptide with 50 ul CFA) once every 10-14 days for a total of three doses. See Table 9 for peptides included in vaccine compositions. CFA was replaced with IFA for the second and third vaccines. Two weeks after the final vaccine, we subcutaneously implanted 4×10^4 MC-38 cells (murine adenocarcinoma), and measured tumor growth with Vernier calipers 2-3 times per week. Tumor volume was calculated as length×width×height×π/6, which is the standard volume calculation of an ellipsoid. Mice were sacrificed when tumor size in control mice reached greater than 1000 mm^3.

Entries after “also recorded” stand apart in the source; their conditions may differ.

B1: PRL3: peptide vaccine of PRL-3 #1, #2, #3, #4, #29, 50 ug per peptide with CFA/IFA (peptide)
chain 1: VSYKHMRFLITHNPTNATL
chain 2: FIEDLKKYGATTVVRVCEVTY
chain 3: PCVAGLGRAPVLVALALIES
chain 4: MKYEDAIQFIRQKRRGAIN
chain 5: VEDWLSLVKAKFCEA
modifications: with CFA/IFA adjuvant
notes: peptide vaccine of PRL-3 #1, #2, #3, #4, #29, 50 ug per peptide with CFA/IFA
On to B1, for which, in assay [1], the “effect on small bowel tumor burden (tumor count)” value is “vaccine efficacy; also recorded: significantly inhibits” and the “peptide efficacy, APCmin Small Bowel (Spontaneous)” value is reported as “Yes”. For the same molecule, in assay [2], the “effect on colon tumor burden (tumor count)” value (“effect on colon tumor burden” below) is reported as “lack of PRL3 vaccine efficacy; also recorded: does not significantly inhibit” and the “peptide efficacy, APCmin Colon (Spontaneous)” value (shortened to “peptide efficacy, APCmin Colon”) is listed as “No”. For the same molecule, the “effect on small bowel tumor burden (tumor count)” value in assay [3] is “does not significantly inhibit”. Moreover, in assay [4], the “effect on colon tumor burden” value is recorded as “lack of PRL3 vaccine efficacy; also recorded: does not significantly inhibit” and the “peptide efficacy, Azoxymethane + FVB (Induced)” value (“peptide efficacy … (Induced)” below) is listed as “No”. In assay [5], the “effect on tumor volume” value was “significantly inhibits” and the “peptide efficacy, MC-38 + B6 (Tumor Implant)” value (“peptide efficacy, MC-38 + B6” below) is listed as “Yes”.

B2: VCP: peptide vaccine of VCP #18, #19, #20, #23, 50 ug per peptide with CFA/IFA (peptide)
chain 1: IRMNRVVRNNLRVRLGDVISI
chain 2: LQLFRGDTVLLKGKKRR
chain 3: YFLEAYRPIRKGDIFLVRG
chain 4: VEFKVVETDPSPYCIVAPDT
modifications: with CFA/IFA adjuvant
notes: peptide vaccine of VCP #18, #19, #20, #23, 50 ug per peptide with CFA/IFA
As to B2, in assay [1], the “effect on small bowel tumor burden (tumor count)” value is given as “vaccine efficacy; also recorded: significantly inhibits” and the “peptide efficacy, APCmin Small Bowel (Spontaneous)” value is on record as “Yes”. Also, in assay [2], the “effect on colon tumor burden” value was “vaccine efficacy; also recorded: significantly inhibits” and the “peptide efficacy, APCmin Colon” value is recorded as “Yes”. Moreover, in assay [4], the “effect on colon tumor burden” value is listed as “lack of VCP vaccine efficacy; also recorded: does not significantly inhibit” and the “peptide efficacy … (Induced)” value is reported as “No”. Besides, in assay [5], the “effect on tumor volume” value was “does not significantly inhibit” and the “peptide efficacy, MC-38 + B6” value is “No”.

B3: RCAS1: peptide vaccine of RCAS1 #13, #14, #21, #30, #31, 50 ug per peptide with CFA/IFA (peptide)
chain 1: EPDYFKDMTPTIRKTQKIVI
chain 2: DYFKDMTPTIRKTQKIVIKKR
chain 3: LFKFCTCLATVFSFLKRLIC
chain 4: GFSSRLAATQDLPFIHQSSELGD
chain 5: EEEDAAWQAEEVLRQQKLADR
modifications: with CFA/IFA adjuvant
notes: peptide vaccine of RCAS1 #13, #14, #21, #30, #31, 50 ug per peptide with CFA/IFA
On to B3, for which, in assay [1], the “effect on small bowel tumor burden (tumor count)” value is “vaccine efficacy; also recorded: significantly inhibits” and the “peptide efficacy, APCmin Small Bowel (Spontaneous)” value is “Yes”. Besides, in assay [2], the “effect on colon tumor burden” value was “lack of RCAS1 vaccine efficacy; also recorded: does not significantly inhibit” and the “peptide efficacy, APCmin Colon” value is reported as “No”. In addition, in assay [4], the “effect on colon tumor burden” value was “lack of RCAS1 vaccine efficacy; also recorded: do not significantly inhibit” and the “peptide efficacy … (Induced)” value was “No”. Further, in assay [5], the “effect on tumor volume” value is on record as “significantly inhibits” and the “peptide efficacy, MC-38 + B6” value is given as “Yes”.
